Results on eight molecules are retold here after publication PMC8298264, “Function of cofactor Akirin2 in the regulation of gene expression in model human neutrophil-like HL60 cells” (Bioscience Reports, 2021).

This assay relates to human HL60 cells. The assay is described as follows: SWATH-MS proteomics, differential protein representation, akirin2 KO vs WT HL60 cells. It counts as cell-based. As to conditions: akirin2 KO vs WT HL60 cells. The procedure, abridged: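 Differential representation compares akirin2 KO with WT HL60 across three biological replicates, 5 µg digest each, acquired by data-independent SWATH on a 120-min gradient. Library built from combined IDA runs searched with Paragon; proteins accepted at 1% FDR, with total-area-sum normalization.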

[1] abbreviates: sheet "Under-represented in KO".
[2] abbreviates: SWATH-MS, under-represented in KO.

B1: sp¦P23634¦AT2B4_HUMAN (protein, UniProt P23634 1-1241, looked up)
Plasma membrane …: MTNPSDRVLPANSMAESREGDFGCTVMELRKLMELRSRDALTQINVHYGGVQNLCSRLKTSPVEGLSGNPADLEKRRQVFGHNVIPPKKPKTFLELVWEALQDVTLIILEIAAIISLVLSFYRPAGEENELCGQVATTPEDENEAQAGWIEGAAILFSVIIVVLVTAFNDWSKEKQFRGLQCRIEQEQKFSIIRNGQLIQLPVAEIVVGDIAQVKYGDLLPADGILIQGNDLKIDESSLTGESDHVKKSLDKDPMLLSGTHVMEGSGRMVVTAVGVNSQTGIILTLLGVNEDDEGEKKKKGKKQGVPENRNKAKTQDGVALEIQPLNSQEGIDNEEKDKKAVKVPKKEKSVLQGKLTRLAVQIGKAGLLMSALTVFILILYFVIDNFVINRRPWLPECTPIYIQYFVKFFIIGITVLVVAVPEGLPLAVTISLAYSVKKMMKDNNLVRHLDACETMGNATAICSDKTGTLTMNRMTVVQAYIGGIHYRQIPSPDVFLPKVLDLIVNGISINSAYTSKILPPEKEGGLPRQVGNKTECALLGFVTDLKQDYQAVRNEVPEEKLYKVYTFNSVRKSMSTVIRNPNGGFRMYSKGASEIILRKCNRILDRKGEAVPFKNKDRDDMVRTVIEPMACDGLRTICIAYRDFDDTEPSWDNENEILTELTCIAVVGIEDPVRPEVPDAIAKCKQAGITVRMVTGDNINTARAIATKCGILTPGDDFLCLEGKEFNRLIRNEKGEVEQEKLDKIWPKLRVLARSSPTDKHTLVKGIIDSTVGEHRQVVAVTGDGTNDGPALKKADVGFAMGIAGTDVAKEASDIILTDDNFTSIVKAVMWGRNVYDSISKFLQFQLTVNVVAVIVAFTGACITQDSPLKAVQMLWVNLIMDTFASLALATEPPTESLLKRRPYGRNKPLISRTMMKNILGHAFYQLIVIFILVFAGEKFFDIDSGRKAPLHSPPSQHYTIVFNTFVLMQLFNEINSRKIHGEKNVFSGIYRNIIFCSVVLGTFICQIFIVEFGGKPFSCTSLSLSQWLWCLFIGIGELLWGQFISAIPTRSLKFLKEAGHGTTKEEITKDAEGLDEIDHAEMELRRGQILWFRGLNRIQTQIDVINTFQTGASFKGVLRRQNMGQHLDVKLVPSSSYIKVVKAFHSSLHESIQKPYNQKSIHSFMTHPEFAIEEELPRTPLLDEEEEENPDKASKFGTRVLLLDGEVTPYANTNNNAVDCNQVQLPQSDSSLQSLETSV
With B1, under setting [1], the “Fold Change” value was determined as 0.3316 and the “Log (Fold Change)” value was -0.4794.

B2: sp¦Q9NVH1¦DJC11_HUMAN (protein, UniProt Q9NVH1 2-559, looked up)
DnaJ homolog subfamily C …: ATALSEEELDNEDYYSLLNVRREASSEELKAAYRRLCMLYHPDKHRDPELKSQAERLFNLVHQAYEVLSDPQTRAIYDIYGKRGLEMEGWEVVERRRTPAEIREEFERLQREREERRLQQRTNPKGTISVGVDATDLFDRYDEEYEDVSGSSFPQIEINKMHISQSIEAPLTATDTAILSGSLSTQNGNGGGSINFALRRVTSAKGWGELEFGAGDLQGPLFGLKLFRNLTPRCFVTTNCALQFSSRGIRPGLTTVLARNLDKNTVGYLQWRWGIQSAMNTSIVRDTKTSHFTVALQLGIPHSFALISYQHKFQDDDQTRVKGSLKAGFFGTVVEYGAERKISRHSVLGAAVSVGVPQGVSLKVKLNRASQTYFFPIHLTDQLLPSAMFYATVGPLVVYFAMHRLIIKPYLRAQKEKELEKQRESAATDVLQKKQEAESAVRLMQESVRRIIEAEESRMGLIIVNAWYGKFVNDKSRKSEKVKVIDVTVPLQCLVKDSKLILTEASKAGLPGFYDPCVGEEKNLKVLYQFRGVLHQVMVLDSEALRIPKQSHRIDTDG
For the molecule B2, under setting [2], the “Fold Change” value worked out at 0.7368 and the “Log (Fold Change)” value is given as -0.1326.

B3: sp¦O95466¦FMNL1_HUMAN (protein, UniProt O95466 2-1100, looked up)
Formin-like protein 1: GNAAGSAEQPAGPAAPPPKQPAPPKQPMPAAGELEERFNRALNCMNLPPDKVQLLSQYDNEKKWELICDQERFQVKNPPAAYIQKLKSYVDTGGVSRKVAADWMSNLGFKRRVQESTQVLRELETSLRTNHIGWVQEFLNEENRGLDVLLEYLAFAQCSVTYDMESTDNGASNSEKNKPLEQSVEDLSKGPPSSVPKSRHLTIKLTPAHSRKALRNSRIVSQKDDVHVCIMCLRAIMNYQSGFSLVMNHPACVNEIALSLNNKNPRTKALVLELLAAVCLVRGGHDIILAAFDNFKEVCGEQHRFEKLMEYFRNEDSNIDFMVACMQFINIVVHSVENMNFRVFLQYEFTHLGLDLYLERLRLTESDKLQVQIQAYLDNIFDVGALLEDTETKNAVLEHMEELQEQVALLTERLRDAENESMAKIAELEKQLSQARKELETLRERFSESTAMGPSRRPPEPEKAPPAAPTRPSALELKVEELEEKGLIRILRGPGDAVSIEILPVAVATPSGGDAPTPGVPTGSPSPDLAPAAEPAPGAAPPPPPPLPGLPSPQEAPPSAPPQAPPLPGSPEPPPAPPLPGDLPPPPPPPPPPPGTDGPVPPPPPPPPPPPGGPPDALGRRDSELGPGVKAKKPIQTKFRMPLLNWVALKPSQITGTVFTELNDEKVLQELDMSDFEEQFKTKSQGPSLDLSALKSKAAQKAPSKATLIEANRAKNLAITLRKGNLGAERICQAIEAYDLQALGLDFLELLMRFLPTEYERSLITRFEREQRPMEELSEEDRFMLCFSRIPRLPERMTTLTFLGNFPDTAQLLMPQLNAIIAASMSIKSSDKLRQILEIVLAFGNYMNSSKRGAAYGFRLQSLDALLEMKSTDRKQTLLHYLVKVIAEKYPQLTGFHSDLHFLDKAGSVSLDSVLADVRSLQRGLELTQREFVRQDDCMVLKEFLRANSPTMDKLLADSKTAQEAFESVVEYFGENPKTTSPGLFFSLFSRFIKAYKKAEQEVEQWKKEAAAQEAGADTPGKGEPPAPKSPPKARRPQMDLISELKRRQQKEPLIYESDRDGAIEDIITVIKTVPFTARTGKRTSRLLCEASLGEEMPL
Regarding B3, under setting [1], the “Fold Change” value amounted to 0.3323 and the “Log (Fold Change)” value was -0.4785.

B4: sp¦P08240¦SRPRA_HUMAN (protein, UniProt P08240 1-638, looked up)
Signal recognition particle …: MLDFFTIFSKGGLVLWCFQGVSDSCTGPVNALIRSVLLQERGGNNSFTHEALTLKYKLDNQFELVFVVGFQKILTLTYVDKLIDDVHRLFRDKYRTEIQQQSALSLLNGTFDFQNDFLRLLREAEESSKIRAPTTMKKFEDSEKAKKPVRSMIETRGEKPKEKAKNSKKKGAKKEGSDGPLATSKPVPAEKSGLPVGPENGVELSKEELIRRKREEFIQKHGRGMEKSNKSTKSDAPKEKGKKAPRVWELGGCANKEVLDYSTPTTNGTPEAALSEDINLIRGTGSGGQLQDLDCSSSDDEGAAQNSTKPSATKGTLGGMFGMLKGLVGSKSLSREDMESVLDKMRDHLIAKNVAADIAVQLCESVANKLEGKVMGTFSTVTSTVKQALQESLVQILQPQRRVDMLRDIMDAQRRQRPYVVTFCGVNGVGKSTNLAKISFWLLENGFSVLIAACDTFRAGAVEQLRTHTRRLSALHPPEKHGGRTMVQLFEKGYGKDAAGIAMEAIAFARNQGFDVVLVDTAGRMQDNAPLMTALAKLITVNTPDLVLFVGEALVGNEAVDQLVKFNRALADHSMAQTPRLIDGIVLTKFDTIDDKVGAAISMTYITSKPIVFVGTGQTYCDLRSLNAKAVVAALMKA
For B4, under setting [2], the “Fold Change” value was determined as 0.7296 and the “Log (Fold Change)” value was -0.1369.

B5: sp¦P10809¦CH60_HUMAN (protein, UniProt P10809 27-573, looked up)
60 kDa heat shock protein, …: AKDVKFGADARALMLQGVDLLADAVAVTMGPKGRTVIIEQSWGSPKVTKDGVTVAKSIDLKDKYKNIGAKLVQDVANNTNEEAGDGTTTATVLARSIAKEGFEKISKGANPVEIRRGVMLAVDAVIAELKKQSKPVTTPEEIAQVATISANGDKEIGNIISDAMKKVGRKGVITVKDGKTLNDELEIIEGMKFDRGYISPYFINTSKGQKCEFQDAYVLLSEKKISSIQSIVPALEIANAHRKPLVIIAEDVDGEALSTLVLNRLKVGLQVVAVKAPGFGDNRKNQLKDMAIATGGAVFGEEGLTLNLEDVQPHDLGKVGEVIVTKDDAMLLKGKGDKAQIEKRIQEIIEQLDVTTSEYEKEKLNERLAKLSDGVAVLKVGGTSDVEVNEKKDRVTDALNATRAAVEEGIVLGGGCALLRCIPALDSLTPANEDQKIGIEIIKRTLKIPAMTIAKNAGVEGSLIVEKIMQSSSEVGYDAMAGDFVNMVEKGIIDPTKVVRTALLDAAGVASLLTTAEVVVTEIPKEEKDPGMGAMGGMGGGMGGGMF
Regarding B5, under setting [2], the “Fold Change” value came out at 0.7233 and the “Log (Fold Change)” value is given as -0.1407.

B6: sp¦P11177¦ODPB_HUMAN (protein, UniProt P11177 31-359, looked up)
Pyruvate dehydrogenase E1 …: LQVTVRDAINQGMDEELERDEKVFLLGEEVAQYDGAYKVSRGLWKKYGDKRIIDTPISEMGFAGIAVGAAMAGLRPICEFMTFNFSMQAIDQVINSAAKTYYMSGGLQPVPIVFRGPNGASAGVAAQHSQCFAAWYGHCPGLKVVSPWNSEDAKGLIKSAIRDNNPVVVLENELMYGVPFEFPPEAQSKDFLIPIGKAKIERQGTHITVVSHSRPVGHCLEAAAVLSKEGVECEVINMRTIRPMDMETIEASVMKTNHLVTVEGGWPQFGVGAEICARIMEGPAFNFLDAPAVRVTGADVPMPYAKILEDNSIPQVKDIIFAIKKTLNI
On to B6, for which, under setting [2], the “Fold Change” value is given as 0.7344 and the “Log (Fold Change)” value is -0.1341.

B7: sp¦Q9H3N1¦TMX1_HUMAN (protein, UniProt Q9H3N1 27-280, looked up)
Thioredoxin-related …: RRSNVRVITDENWRELLEGDWMIEFYAPWCPACQNLQPEWESFAEWGEDLEVNIAKVDVTEQPGLSGRFIITALPTIYHCKDGEFRRYQGPRTKKDFINFISDKEWKSIEPVSSWFGPGSVLMSSMSALFQLSMWIRTCHNYFIEDLGLPVWGSYTVFALATLFSGLLLGLCMIFVADCLCPSKRRRPQPYPYPSKKLLSESAQPLKKVEEEQEADEEDVSEEEAESKEGTNKDFPQNAIRQRSLGPSLATDKS
Turning to B7, under setting [2], the “Fold Change” value turned out to be 0.7331 and the “Log (Fold Change)” value is reported as -0.1348.

B8: sp¦P05164¦PERM_HUMAN (protein, UniProt P05164 165-745, looked up)
Myeloperoxidase: VTCPEQDKYRTITGMCNNRRSPTLGASNRAFVRWLPAEYEDGFSLPYGWTPGVKRNGFPVALARAVSNEIVRFPTDQLTPDQERSLMFMQWGQLLDHDLDFTPEPAARASFVTGVNCETSCVQQPPCFPLKIPPNDPRIKNQADCIPFFRSCPACPGSNITIRNQINALTSFVDASMVYGSEEPLARNLRNMSNQLGLLAVNQRFQDNGRALLPFDNLHDDPCLLTNRSARIPCFLAGDTRSSEMPELTSMHTLLLREHNRLATELKSLNPRWDGERLYQEARKIVGAMVQIITYRDYLPLVLGPTAMRKYLPTYRSYNDSVDPRIANVFTNAFRYGHTLIQPFMFRLDNRYQPMEPNPRVPLSRVFFASWRVVLEGGIDPILRGLMATPAKLNRQNQIAVDEIRERLFEQVMRIGLDLPALNMQRSRDHGLPGYNAWRRFCGLPQPETVGQLGTVLRNLKLARKLMEQYGTPNNIDIWMGGVSEPLKRKGRVGPLLACIIGTQFRKLRDGDRFWWENEGVFSMQQRQALAQISLPRIICDNTGITTVSKNNIFMSNSYPRDFVNCSTLPALNLASWREAS
Turning to B8, under setting [2], the “Fold Change” value is given as 0.7315 and the “Log (Fold Change)” value is recorded as -0.1358.
